Measured values: article doi:10.1101/779520
Where two headings read alike, the source gives them in different places.

What was measured:
[1] = target: otoferlin (mouse (endogenous in inner hair cells)); experiment: proximity ligation
[2] = target: otoferlin (mouse (endogenous in inner hair cells)); experiment: proximity ligation; remark: listed apart in the source

Sequence of otoferlin (mouse (endogenous in inner hair cells)) (Q9ESF1 whole entry): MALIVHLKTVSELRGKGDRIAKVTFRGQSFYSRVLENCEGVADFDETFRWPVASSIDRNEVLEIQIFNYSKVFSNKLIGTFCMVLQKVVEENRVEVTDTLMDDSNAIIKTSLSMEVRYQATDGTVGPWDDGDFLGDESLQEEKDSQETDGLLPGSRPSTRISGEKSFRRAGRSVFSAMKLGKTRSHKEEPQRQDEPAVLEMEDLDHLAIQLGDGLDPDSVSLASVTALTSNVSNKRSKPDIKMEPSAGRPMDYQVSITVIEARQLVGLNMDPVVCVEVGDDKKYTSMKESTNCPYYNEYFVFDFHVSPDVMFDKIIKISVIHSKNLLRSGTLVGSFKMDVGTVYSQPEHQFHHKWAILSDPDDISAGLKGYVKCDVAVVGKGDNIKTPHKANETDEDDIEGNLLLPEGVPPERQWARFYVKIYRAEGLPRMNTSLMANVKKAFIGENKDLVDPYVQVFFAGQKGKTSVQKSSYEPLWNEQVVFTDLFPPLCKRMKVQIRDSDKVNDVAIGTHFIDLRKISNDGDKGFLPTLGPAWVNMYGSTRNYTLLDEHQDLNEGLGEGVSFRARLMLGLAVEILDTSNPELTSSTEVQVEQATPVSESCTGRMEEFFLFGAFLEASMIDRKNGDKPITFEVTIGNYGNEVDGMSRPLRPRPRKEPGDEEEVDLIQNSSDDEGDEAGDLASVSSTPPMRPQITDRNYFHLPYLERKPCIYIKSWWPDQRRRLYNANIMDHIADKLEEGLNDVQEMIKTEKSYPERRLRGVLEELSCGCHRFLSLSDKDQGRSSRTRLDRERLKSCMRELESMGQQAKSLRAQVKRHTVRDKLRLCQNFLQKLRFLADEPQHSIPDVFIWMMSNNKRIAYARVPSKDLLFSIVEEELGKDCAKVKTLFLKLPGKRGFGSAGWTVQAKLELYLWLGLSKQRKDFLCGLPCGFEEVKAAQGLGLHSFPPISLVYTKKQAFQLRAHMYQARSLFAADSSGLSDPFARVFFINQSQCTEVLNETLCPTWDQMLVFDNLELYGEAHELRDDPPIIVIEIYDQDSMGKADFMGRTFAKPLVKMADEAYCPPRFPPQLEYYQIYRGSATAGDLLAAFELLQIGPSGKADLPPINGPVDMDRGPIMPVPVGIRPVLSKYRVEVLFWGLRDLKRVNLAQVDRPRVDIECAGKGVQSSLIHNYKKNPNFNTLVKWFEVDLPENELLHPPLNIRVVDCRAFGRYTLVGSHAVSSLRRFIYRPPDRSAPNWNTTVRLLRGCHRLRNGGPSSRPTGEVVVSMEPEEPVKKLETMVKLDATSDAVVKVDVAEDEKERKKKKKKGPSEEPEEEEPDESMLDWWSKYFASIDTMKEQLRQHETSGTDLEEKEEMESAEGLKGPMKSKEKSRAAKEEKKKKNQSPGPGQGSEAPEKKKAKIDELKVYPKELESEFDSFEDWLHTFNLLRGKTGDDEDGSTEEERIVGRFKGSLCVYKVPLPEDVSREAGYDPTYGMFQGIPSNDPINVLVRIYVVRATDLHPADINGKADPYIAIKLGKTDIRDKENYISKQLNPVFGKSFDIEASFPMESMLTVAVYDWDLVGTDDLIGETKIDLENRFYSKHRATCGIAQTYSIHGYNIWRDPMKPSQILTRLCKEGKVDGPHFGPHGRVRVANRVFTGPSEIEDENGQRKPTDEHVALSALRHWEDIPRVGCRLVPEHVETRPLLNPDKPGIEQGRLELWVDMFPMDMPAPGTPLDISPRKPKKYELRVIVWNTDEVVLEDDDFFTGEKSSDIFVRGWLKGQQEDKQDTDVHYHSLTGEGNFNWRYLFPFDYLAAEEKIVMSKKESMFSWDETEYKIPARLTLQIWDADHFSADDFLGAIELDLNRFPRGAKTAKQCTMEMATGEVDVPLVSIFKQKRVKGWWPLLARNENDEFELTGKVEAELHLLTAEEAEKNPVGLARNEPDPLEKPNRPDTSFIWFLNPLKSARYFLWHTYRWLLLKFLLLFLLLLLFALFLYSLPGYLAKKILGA

Which PLA puncta fluorescence intensity per cell, % of rest, PMA 5 min [1] does the source give for “myosin VI (from UniProt Q64331 1-1262) (natural protein)” here?
The PLA puncta fluorescence intensity per cell, % of rest, PMA 5 min was 133%.

What about the PLA puncta fluorescence intensity per cell, % of rest, PMA 15 min [1] of the same molecule?
The PLA puncta fluorescence intensity per cell, % of rest, PMA 15 min was 149%.

And the PLA puncta fluorescence intensity per cell, % of rest, after 1-min stimulation [1]?
Its PLA puncta fluorescence intensity per cell, % of rest, after 1-min stimulation is 173%.

For “protein kinase C α (from UniProt P20444 1-672) (enzyme)”, which PLA puncta fluorescence intensity per cell, % of rest, after 1-min stimulation [1] is on record?
Its PLA puncta fluorescence intensity per cell, % of rest, after 1-min stimulation is 442%.

B1: calbindin-D28k (natural protein)
chain: MAESHLQSSLITASQFFEIWLHFDADGSGYLEGKELQNLIQELLQARKKAGLELSPEMKSFVDQYGQRDDGKIGIVELAHVLPTEENFLLLFRCQQLKSCEEFMKTWRKYDTDHSGFIETEELKNFLKDLLEKANKTVDDTKLAEYTDLMLKLFDSNNDGKLELTEMARLLPVQENFLLKFQGIKMCGKEFNKAFELYDQDGNGYIDENELDALLKDLCEKNKQELDINNITTYKKNIMALSDGGKLYRTDLALILSAGDN
Which PLA puncta fluorescence intensity per cell, % of rest, PMA 5 min [2] does the source give for B1 here?
Its PLA puncta fluorescence intensity per cell, % of rest, PMA 5 min is 175%.

What about the PLA puncta fluorescence intensity per cell, % of rest, PMA 15 min [2] of the same molecule?
The PLA puncta fluorescence intensity per cell, % of rest, PMA 15 min was 161%.

And the PLA puncta fluorescence intensity per cell, % of rest, after 1-min stimulation [2]?
Its PLA puncta fluorescence intensity per cell, % of rest, after 1-min stimulation is 560%.
